Results taken from US20220340642A1 (Kyowa Kirin, published 2022).

T1: soluble recombinant of human LIGHT (His10, GS linker, Asp74-Val240)
T1 chain: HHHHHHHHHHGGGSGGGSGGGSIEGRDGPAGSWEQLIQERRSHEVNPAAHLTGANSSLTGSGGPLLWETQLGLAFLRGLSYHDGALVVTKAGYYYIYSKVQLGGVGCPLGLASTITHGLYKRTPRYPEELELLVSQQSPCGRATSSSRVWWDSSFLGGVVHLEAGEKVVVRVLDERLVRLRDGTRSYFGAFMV

T2: soluble recombinant of human FasL (His6, Pro134-Leu281) (UniProt P48023 134-281)
T2 chain: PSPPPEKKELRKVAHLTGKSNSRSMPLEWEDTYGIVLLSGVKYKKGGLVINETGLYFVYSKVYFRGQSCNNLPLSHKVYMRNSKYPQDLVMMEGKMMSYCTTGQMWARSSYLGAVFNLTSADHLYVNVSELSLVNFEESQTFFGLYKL

T3: soluble recombinant of human TL1A (His6, GS linker, Leu72-Leu251) (UniProt O95150 72-251)
T3 chain: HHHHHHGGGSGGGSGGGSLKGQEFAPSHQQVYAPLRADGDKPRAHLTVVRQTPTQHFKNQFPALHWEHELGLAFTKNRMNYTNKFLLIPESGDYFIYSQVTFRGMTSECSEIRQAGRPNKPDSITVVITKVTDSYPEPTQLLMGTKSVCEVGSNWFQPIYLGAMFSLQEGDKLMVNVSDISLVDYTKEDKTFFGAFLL

T4: soluble recombinant of cynomolgus monkey TL1A (His6, GS linker, Leu72-Leu251) (cynomolgus monkey)
T4 construct: also called His6-cynoTL1A
T4 chain: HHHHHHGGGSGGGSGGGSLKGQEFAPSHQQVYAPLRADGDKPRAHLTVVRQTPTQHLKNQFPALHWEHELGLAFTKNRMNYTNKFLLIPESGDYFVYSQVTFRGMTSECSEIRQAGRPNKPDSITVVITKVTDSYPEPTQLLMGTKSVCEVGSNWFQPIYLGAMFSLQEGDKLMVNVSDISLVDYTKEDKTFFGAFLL

T5: FLAG-cynoLIGHT (FLAG tag, cynomolgus monkey LIGHT Asp74-Val240) (cynomolgus monkey)
T5 construct: SEC trimer fraction; also called soluble cynomolgus monkey LIGHT trimer
T5 chain: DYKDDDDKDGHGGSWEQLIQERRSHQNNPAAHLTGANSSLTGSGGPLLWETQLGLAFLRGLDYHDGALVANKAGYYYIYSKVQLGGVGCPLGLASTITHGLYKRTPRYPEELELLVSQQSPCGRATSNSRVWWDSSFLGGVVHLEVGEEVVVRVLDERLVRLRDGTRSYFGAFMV


Legend:
[1] = target: T1, soluble recombinant of human LIGHT …; assay: BIAcore SPR
Outline: (§1)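 Binding of each test molecule to soluble recombinant His-tagged human or cynomolgus monkey LIGHT, TL1A or FasL was analysed by surface plasmon resonance. Measurements used a BIAcore T-100 or T-200 instrument (GE Healthcare) in HBS-EP+ Buffer. The dissociation constant (Kd, nM) was derived from these measurements.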

[2] = target: T2, soluble recombinant of human FasL …; assay: BIAcore SPR
Outline: as §1

[3] = target: T3, soluble recombinant of human TL1A …; assay: BIAcore SPR
Outline: as §1

[4] = target: T4, soluble recombinant of cynomolgus …; assay: SPR, binder captured on Protein A chip
Method: (§2) The binding activity to human and cynomolgus monkey DcR3 ligand trimers were analyzed by the SPR method. BIAcore T-100 (GE Healthcare) was used for measurement of the binding activities to human LIGHT, cynomolgus monkey LIGHT, human TL1A and cynomolgus monkey TL1A, and BIAcore T-200 (GE Healthcare) was used for measurement of the binding activities to human FasL and cynomolgus monkey FasL. As the buffer, HBS-EP+Buffer was used.
(§3) Various DcR3 variants were injected into Series S Sensor Chip Protein A (GE Healthcare) at 10 μL/min for 30 seconds and captured. Meanwhile, the buffer containing no protein was injected into a reference flow cell. Thereafter, as an analyte, each human DcR3 ligand trimer or each cynomolgus monkey DcR3 ligand trimer diluted to 0.08 to 20 nmol/L was injected. A human LIGHT trimer, a human TL1A trimer or each cynomolgus monkey DcR3 ligand trimer was injected at the flow rate of 30 μL/min for 2 minutes to monitor the binding, and subsequently the buffer was injected for 5 minutes to monitor dissociation. A human FasL trimer was injected at 30 μL/min for 1 minute to monitor the binding, and subsequently the buffer was injected for 3 minutes to monitor dissociation. Then, 3 mol/L magnesium chloride was injected at 30 μL/min for 1 minute to perform a regeneration reaction.

[5] = target: T5, FLAG-cynoLIGHT (FLAG tag, cynomolgus …); assay: SPR, binder captured on Protein A chip
Method: as §2, §3

Kd [1] [pM]	Kd [2] [pM]	Kd [3] [pM]	binding result [4]	binding result [5]	Binder
290	4600	160	binds	binds	chimera A-E57K_R58E-Fc (Eg1S LALAGANA) (Fc fusion) ETFPPKYLHYDEETSHQLLCDKCPPGTYLKQHCTAKWKTVCAPCPPRHYTQFWNYLKECRYCNVLCGEREEEARACHATHNRACRCRTGFFAHAGFCLEHASCPPGAGVIAPGTPSQNTQCQPCPDGFFSNETSSKAPCRKHTNCSVFGLLLTQKGNATHDNICSGNSESTQKEPKSSDKTHTCPPCPAPEAAGAPSVFLFPPKPKDTLMISRTPEVTCVVVDVSHEDPEVKFNWYVDGVEVHNAKTKPREEQYNSTYRVVSVLTVLHQDWLNGKEYKCKVSNKALPAPIEKTISKAKGQPREPQVYTLPPSRDELTKNQVSLTCLVKGFYPSDIAVEWESNGQPENNYKTTPPVLDSDGSFFLYSKLTVDKSRWQQGNVFSCSVMHEALHAHYTQKSLSLSPGK
330	5200	230	binds	binds	chimera A-E57V-Fc (Eg1S LALAGANA) (Fc fusion) ETFPPKYLHYDEETSHQLLCDKCPPGTYLKQHCTAKWKTVCAPCPPRHYTQFWNYLVRCRYCNVLCGEREEEARACHATHNRACRCRTGFFAHAGFCLEHASCPPGAGVIAPGTPSQNTQCQPCPDGFFSNETSSKAPCRKHTNCSVFGLLLTQKGNATHDNICSGNSESTQKEPKSSDKTHTCPPCPAPEAAGAPSVFLFPPKPKDTLMISRTPEVTCVVVDVSHEDPEVKFNWYVDGVEVHNAKTKPREEQYNSTYRVVSVLTVLHQDWLNGKEYKCKVSNKALPAPIEKTISKAKGQPREPQVYTLPPSRDELTKNQVSLTCLVKGFYPSDIAVEWESNGQPENNYKTTPPVLDSDGSFFLYSKLTVDKSRWQQGNVFSCSVMHEALHAHYTQKSLSLSPGK
270	1200	160	binds	binds	chimera A-Fc (Eg1S YTE) (Fc fusion) ETFPPKYLHYDEETSHQLLCDKCPPGTYLKQHCTAKWKTVCAPCPPRHYTQFWNYLERCRYCNVLCGEREEEARACHATHNRACRCRTGFFAHAGFCLEHASCPPGAGVIAPGTPSQNTQCQPCPDGFFSNETSSKAPCRKHTNCSVFGLLLTQKGNATHDNICSGNSESTQKEPKSSDKTHTCPPCPAPELLGGPSVFLFPPKPKDTLYITREPEVTCVVVDVSHEDPEVKFNWYVDGVEVHNAKTKPREEQYNSTYRVVSVLTVLHQDWLNGKEYKCKVSNKALPAPIEKTISKAKGQPREPQVYTLPPSRDELTKNQVSLTCLVKGFYPSDIAVEWESNGQPENNYKTTPPVLDSDGSFFLYSKLTVDKSRWQQGNVFSCSVMHEALHNHYTQKSLSLSPGK
350	5300	240	binds	binds	chimera A-E57V-Fc (Eg1S YTE) (Fc fusion) ETFPPKYLHYDEETSHQLLCDKCPPGTYLKQHCTAKWKTVCAPCPPRHYTQFWNYLVRCRYCNVLCGEREEEARACHATHNRACRCRTGFFAHAGFCLEHASCPPGAGVIAPGTPSQNTQCQPCPDGFFSNETSSKAPCRKHTNCSVFGLLLTQKGNATHDNICSGNSESTQKEPKSSDKTHTCPPCPAPELLGGPSVFLFPPKPKDTLYITREPEVTCVVVDVSHEDPEVKFNWYVDGVEVHNAKTKPREEQYNSTYRVVSVLTVLHQDWLNGKEYKCKVSNKALPAPIEKTISKAKGQPREPQVYTLPPSRDELTKNQVSLTCLVKGFYPSDIAVEWESNGQPENNYKTTPPVLDSDGSFFLYSKLTVDKSRWQQGNVFSCSVMHEALHNHYTQKSLSLSPGK
200	750	120	binds	binds	chimera A-Fc (Eg1S LALAGANA) (Fc fusion) ETFPPKYLHYDEETSHQLLCDKCPPGTYLKQHCTAKWKTVCAPCPPRHYTQFWNYLERCRYCNVLCGEREEEARACHATHNRACRCRTGFFAHAGFCLEHASCPPGAGVIAPGTPSQNTQCQPCPDGFFSNETSSKAPCRKHTNCSVFGLLLTQKGNATHDNICSGNSESTQKEPKSSDKTHTCPPCPAPEAAGAPSVFLFPPKPKDTLMISRTPEVTCVVVDVSHEDPEVKFNWYVDGVEVHNAKTKPREEQYNSTYRVVSVLTVLHQDWLNGKEYKCKVSNKALPAPIEKTISKAKGQPREPQVYTLPPSRDELTKNQVSLTCLVKGFYPSDIAVEWESNGQPENNYKTTPPVLDSDGSFFLYSKLTVDKSRWQQGNVFSCSVMHEALHAHYTQKSLSLSPGK

The next lines start with the binder.

Binder	Kd [1] [pM]	Kd [2] [pM]	Kd [3] [pM]	binding result [4]	binding result [5]
chimera A-E57K_R58D-Fc (Eg1S LALAGANA) (Fc fusion) ETFPPKYLHYDEETSHQLLCDKCPPGTYLKQHCTAKWKTVCAPCPPRHYTQFWNYLKDCRYCNVLCGEREEEARACHATHNRACRCRTGFFAHAGFCLEHASCPPGAGVIAPGTPSQNTQCQPCPDGFFSNETSSKAPCRKHTNCSVFGLLLTQKGNATHDNICSGNSESTQKEPKSSDKTHTCPPCPAPEAAGAPSVFLFPPKPKDTLMISRTPEVTCVVVDVSHEDPEVKFNWYVDGVEVHNAKTKPREEQYNSTYRVVSVLTVLHQDWLNGKEYKCKVSNKALPAPIEKTISKAKGQPREPQVYTLPPSRDELTKNQVSLTCLVKGFYPSDIAVEWESNGQPENNYKTTPPVLDSDGSFFLYSKLTVDKSRWQQGNVFSCSVMHEALHAHYTQKSLSLSPGK	300	4600	200	binds	binds
chimera A-E57K_R58E-Fc (Eg1S YTE) (Fc fusion, also called 45-18-Fc (Eg1S YTE)) ETFPPKYLHYDEETSHQLLCDKCPPGTYLKQHCTAKWKTVCAPCPPRHYTQFWNYLKECRYCNVLCGEREEEARACHATHNRACRCRTGFFAHAGFCLEHASCPPGAGVIAPGTPSQNTQCQPCPDGFFSNETSSKAPCRKHTNCSVFGLLLTQKGNATHDNICSGNSESTQKEPKSSDKTHTCPPCPAPELLGGPSVFLFPPKPKDTLYITREPEVTCVVVDVSHEDPEVKFNWYVDGVEVHNAKTKPREEQYNSTYRVVSVLTVLHQDWLNGKEYKCKVSNKALPAPIEKTISKAKGQPREPQVYTLPPSRDELTKNQVSLTCLVKGFYPSDIAVEWESNGQPENNYKTTPPVLDSDGSFFLYSKLTVDKSRWQQGNVFSCSVMHEALHNHYTQKSLSLSPGK	330	5600	200	binds	binds
chimera A-E57K_R58D-Fc (Eg1S YTE) (Fc fusion, also called 45-10-Fc (Eg1S YTE)) ETFPPKYLHYDEETSHQLLCDKCPPGTYLKQHCTAKWKTVCAPCPPRHYTQFWNYLKDCRYCNVLCGEREEEARACHATHNRACRCRTGFFAHAGFCLEHASCPPGAGVIAPGTPSQNTQCQPCPDGFFSNETSSKAPCRKHTNCSVFGLLLTQKGNATHDNICSGNSESTQKEPKSSDKTHTCPPCPAPELLGGPSVFLFPPKPKDTLYITREPEVTCVVVDVSHEDPEVKFNWYVDGVEVHNAKTKPREEQYNSTYRVVSVLTVLHQDWLNGKEYKCKVSNKALPAPIEKTISKAKGQPREPQVYTLPPSRDELTKNQVSLTCLVKGFYPSDIAVEWESNGQPENNYKTTPPVLDSDGSFFLYSKLTVDKSRWQQGNVFSCSVMHEALHNHYTQKSLSLSPGK	400	5700	250	binds	binds
